Test results from US7598032B2, “Thermostable DNA polymerases incorporating nucleoside triphosphates labeled with fluorescent dyes” (Roche Molecular Systems, priority 1997, dated 2009).

What was measured:
Format in all cases: biochemical
[1] = target: T1, Thermus aquaticus (Taq) DNA polymerase variant G46D F667Y (Thermus aquaticus, UniProt P19821, F667Y/G46D); assay: Limiting template primer extension competition assay (ddNTP incorporation), G46D F667Y Taq
T1 construct: Expression vector pRDA3-2 contains the full-length Taq DNA polymerase gene; made in house; host or cells: E. coli DG116 (stated generally for the polymerases of the invention)
T1 sequence (P19821 whole entry G46D/F667Y): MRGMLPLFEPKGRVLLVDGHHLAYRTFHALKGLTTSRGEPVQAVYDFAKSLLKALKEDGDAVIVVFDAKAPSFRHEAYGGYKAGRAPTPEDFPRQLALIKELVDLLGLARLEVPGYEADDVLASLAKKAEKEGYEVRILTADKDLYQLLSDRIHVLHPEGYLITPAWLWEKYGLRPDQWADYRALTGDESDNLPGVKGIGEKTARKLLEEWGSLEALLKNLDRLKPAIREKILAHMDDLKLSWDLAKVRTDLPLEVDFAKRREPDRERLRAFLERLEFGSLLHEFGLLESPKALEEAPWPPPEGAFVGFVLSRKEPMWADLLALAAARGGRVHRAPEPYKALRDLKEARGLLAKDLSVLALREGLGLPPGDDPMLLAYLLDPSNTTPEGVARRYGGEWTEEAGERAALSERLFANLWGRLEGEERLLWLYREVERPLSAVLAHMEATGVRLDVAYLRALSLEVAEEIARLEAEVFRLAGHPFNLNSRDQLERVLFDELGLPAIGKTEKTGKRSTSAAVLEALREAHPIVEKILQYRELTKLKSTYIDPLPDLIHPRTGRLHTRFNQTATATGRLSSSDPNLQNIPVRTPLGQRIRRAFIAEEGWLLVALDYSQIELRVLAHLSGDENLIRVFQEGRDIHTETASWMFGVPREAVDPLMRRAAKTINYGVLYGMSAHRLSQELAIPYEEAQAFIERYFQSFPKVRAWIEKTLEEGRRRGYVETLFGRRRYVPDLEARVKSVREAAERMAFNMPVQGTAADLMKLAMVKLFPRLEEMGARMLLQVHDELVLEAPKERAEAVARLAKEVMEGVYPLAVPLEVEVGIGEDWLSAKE
Protocol: (§1) The ability of the enzymes of this invention to efficiently incorporate nucleotides labeled with fluorescein family dyes is measured by ddNTP incorporation assays. One such assay is a primer extension competition assay conducted under conditions of limiting template. In this assay, a primer DG48 (5′-[…]), (SEQ ID NO: 11), bound to M13 mp18 template (Innis et al., 1988, Proc. Natl. Acad. Sci. USA 85:9436) is extended in the presence of [α-^33P]dCTP and excess enzyme with various levels of a fluorescently labeled ddNTP, Zowie-ddCTP. Because the incorporation of a ddCTP residue terminates the extension reaction, the more readily a DNA polymerase incorporates a ddCTP into an extended primer, the less [α-^33P]dCTP can be incorporated. Thus, as the efficiency of fluorescently labeled ddCTP incorporation increases, the extent of inhibition of DNA synthesis is increased. The reactions were also performed with various levels of an unlabeled ddCTP. […]
(§2) The relative abilities of G46D F667Y Taq, G46D F667Y E681K Taq and F730Y Tma30 DNA polymerases to incorporate a fluorescein dye family-labeled ddCTP were compared by use of a limiting template, primer extension competition assay. […] In this competition assay, because the incorporation of a ddCTP terminates the extension reaction, the more readily the polymerase incorporates a ddCTP into an extended primer, the less [α-^33P]dCTP can be incorporated. […]

[2] = test system: M13 mp18 single-strand DNA template; assay: Cycle sequencing with fluorescein labeled ddNTPs (dye-terminator sequencing)
Protocol: The fluorescein dye labeled dideoxy terminators are reagents from the Applied Biosystems PRISM Sequenase® Terminator Sequencing Kits (Perkin-Elmer, Norwalk, Conn.) and were optimized for use with Sequenase DNA polymerase and alpha-thio dNTPs. Cycle sequencing reactions were performed in a 20 μl volume containing 50 mM Tris-HCl (pH 8.8), 2.0 mM MgCl2, 100 μM each dATP, dCTP, and dTTP (Perkin-Elmer, Norwalk, Conn.), 500 μM dITP (Pharmacia Biotech, Piscataway, N.J.), 0.2 μM13 mp18 single-strand DNA template (Perkin-Elmer), 0.15 μM LacZ Forward Primer (Perkin-Elmer), 5 units of G46D F667Y E681K Taq DNA polymerase, 20 units of rTth Thermostable Pyrophosphatase (U.S. Ser. No. 08/528,384), 0.05 μM Sequenase A Dye Terminator, 0.80 μM Sequenase C Dye Terminator, 0.08 μM Sequenase G Dye Terminator, and 1.0 μM Sequenase T Dye Terminator. All four Sequenase Dye Terminators were purchased from Perkin-Elmer. Reactions were placed in a preheated (75° C.) Perkin-Elmer GeneAmp® PCR System 9600 thermal cycler and subjected to 25 cycles of 96° C. for 10 seconds, 50° C. for 5 seconds, and 60° C. for 4 minutes. Dye labeled fragments were purified with Centri-Sep™ columns (Princeton Separations, Adelphia, N.J.) following the manufacturer's instructions and dried in a vacuum centrifuge. Pellets were resuspended in 6 μl of deionized formamide:50 mg/mL Blue dextran (in 25 mM EDTA, pH 8.0) 5:1 (v/v), heated at 90° C. for 3 minutes, and directly loaded onto a pre-electrophoresed 4% polyacrylamide/6 M urea gel and electrophoresed and analyzed on a Perkin-Elmer ABI PRISM' 377 DNA Sequencer according to the manufacturer instructions (ABI PRISM 377 DNA Sequencer User's Manual).

[3] = dye-terminator dideoxy-sequencing using rhodamine-labeled terminators
[4] = test system: primer DG48 annealed to M13 mp18 template; assay: limiting template, primer extension competition assay (ddNTP incorporation assay); conditions: ratio of concentrations for 50% inhibition by Zowie-ddCTP vs. ddCTP
Protocol: as §1, §2

Row | Molecule | IC50 [1] [nM] | accuracy of automated base-calling ([2]; for 450 bases, ABI PRISM 377 DNA Sequencer, 1 μM or less ddNTP) | base-calling errors ([2]; for bases +10 to +460 from primer) [errors] | sequencing ladder with fluorescein dye family-labeled ddNTPs ([2]; sequencing reaction with fluorescein dye family-labeled ddNTPs) | peak heights in dye-terminator dideoxy-sequencing [3] | Zowie-ddCTP/ddCTP (ratio of concentrations for 50% inhibition) [4]
1 | Nc1ccn([C@H]2CC[C@@H](COP(=O)(O)OP(=O)(O)OP(=O)(O)O)O2)c(=O)n1 [ddCTP] | 56 |  |  |  |  | 
2 | G46D F667Y E681K Taq: thermostable Taq DNA polymerase with G46D, F667Y and E681K mutations, encoded by plasmid pLK113 (protein, UniProt P19821 1-832, looked up, variant G46D F667Y E681K) DNA polymerase I, thermostable: MRGMLPLFEPKGRVLLVDGHHLAYRTFHALKGLTTSRGEPVQAVYDFAKSLLKALKEDGDAVIVVFDAKAPSFRHEAYGGYKAGRAPTPEDFPRQLALIKELVDLLGLARLEVPGYEADDVLASLAKKAEKEGYEVRILTADKDLYQLLSDRIHVLHPEGYLITPAWLWEKYGLRPDQWADYRALTGDESDNLPGVKGIGEKTARKLLEEWGSLEALLKNLDRLKPAIREKILAHMDDLKLSWDLAKVRTDLPLEVDFAKRREPDRERLRAFLERLEFGSLLHEFGLLESPKALEEAPWPPPEGAFVGFVLSRKEPMWADLLALAAARGGRVHRAPEPYKALRDLKEARGLLAKDLSVLALREGLGLPPGDDPMLLAYLLDPSNTTPEGVARRYGGEWTEEAGERAALSERLFANLWGRLEGEERLLWLYREVERPLSAVLAHMEATGVRLDVAYLRALSLEVAEEIARLEAEVFRLAGHPFNLNSRDQLERVLFDELGLPAIGKTEKTGKRSTSAAVLEALREAHPIVEKILQYRELTKLKSTYIDPLPDLIHPRTGRLHTRFNQTATATGRLSSSDPNLQNIPVRTPLGQRIRRAFIAEEGWLLVALDYSQIELRVLAHLSGDENLIRVFQEGRDIHTETASWMFGVPREAVDPLMRRAAKTINYGVLYGMSAHRLSQKLAIPYEEAQAFIERYFQSFPKVRAWIEKTLEEGRRRGYVETLFGRRRYVPDLEARVKSVREAAERMAFNMPVQGTAADLMKLAMVKLFPRLEEMGARMLLQVHDELVLEAPKERAEAVARLAKEVMEGVYPLAVPLEVEVGIGEDWLSAKE |  | greater than 98.5% | 6 | readable sequencing ladder | more uniform peak heights | 1.2
